The target in assay [1] is T1, Heat Shock Protein 90 (HSP90), endogenous, in human cell lines (human), P07900. Briefly: cell-based or functional assay.
Assay [2] has as its target HSP90 endogenous to CHO cells (Hamster), P46633. Briefly: cell-based or functional assay.
Assay [3] concerns the target T1, Heat Shock Protein 90 (HSP90), …. Briefly: streptavidin affinity purification of biotinylated peptide from lysates of cancer cells (UMSCC1, H1975), immunoblot for HSP90. On the technique in general: A western blot detects proteins with antibodies after separation by electrophoresis.

Ends that are not written are not given here.

HSP90 endogenous to CHO cells (Hamster), P46633, sequence (P46633 whole entry): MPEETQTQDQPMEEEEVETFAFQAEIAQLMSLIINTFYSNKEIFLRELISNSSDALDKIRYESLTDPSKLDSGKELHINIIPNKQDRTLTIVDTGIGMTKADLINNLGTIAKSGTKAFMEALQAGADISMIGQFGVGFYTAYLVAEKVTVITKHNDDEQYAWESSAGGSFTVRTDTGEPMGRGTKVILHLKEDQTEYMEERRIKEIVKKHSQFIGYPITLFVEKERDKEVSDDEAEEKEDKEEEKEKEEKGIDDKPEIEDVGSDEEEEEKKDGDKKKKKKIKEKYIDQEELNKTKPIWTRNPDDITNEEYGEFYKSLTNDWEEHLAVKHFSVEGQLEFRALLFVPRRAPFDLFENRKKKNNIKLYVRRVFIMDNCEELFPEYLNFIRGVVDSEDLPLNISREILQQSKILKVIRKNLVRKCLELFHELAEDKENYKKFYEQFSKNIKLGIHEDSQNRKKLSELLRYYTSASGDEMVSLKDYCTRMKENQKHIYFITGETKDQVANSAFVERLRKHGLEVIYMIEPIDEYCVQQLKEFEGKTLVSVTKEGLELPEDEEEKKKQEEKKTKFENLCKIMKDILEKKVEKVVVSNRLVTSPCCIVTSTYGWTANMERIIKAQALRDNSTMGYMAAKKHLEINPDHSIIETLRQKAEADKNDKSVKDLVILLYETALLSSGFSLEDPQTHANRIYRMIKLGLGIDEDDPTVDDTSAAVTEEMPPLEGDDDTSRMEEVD

B1: Non Specific Peptide Biotin-[…]-NHVPSDVC (peptide)
peptide: YGRKKRRQRRRNHVPSDVC
modifications: not fully specified (N-terminus)
In assay [1], B1 displayed a clonogenic survival, A549 cells (WT-EGFR) (surviving fraction) of 0.81; a clonogenic survival, H1975 cells (T790M-EGFR) (surviving fraction) of 0.77; a clonogenic survival, H3255 cells (L858R-EGFR) (surviving fraction) of 1; a clonogenic survival, HeLa cells (WT-EGFR) (surviving fraction) of 0.92. For the same molecule, in assay [1], the clonogenic survival, Het1A normal epithelial cells (WT-EGFR) (surviving fraction) came out at 0.91; the clonogenic survival, MRC5 normal fibroblasts (WT-EGFR) (surviving fraction) is 1.04; the clonogenic survival, UMSCC1 cells (WT-EGFR) (surviving fraction) stood at 1.02; the clonogenic survival, UMSCC10B cells (WT-EGFR) (surviving fraction) amounted to 0.96. The molecule further yielded a clonogenic survival, UMSCC74B cells (WT-EGFR) (surviving fraction) in assay [1] of 0.89. For the same molecule, in assay [2], the clonogenic survival, CHO cells (EGFR negative) (surviving fraction) came to 1.12.

B2: Specific Peptide Biotin-[…]-SVDNPHVC (peptide)
peptide: YGRKKRRQRRRSVDNPHVC
modifications: not fully specified (N-terminus)
For the molecule B2, in assay [1], the clonogenic survival, A549 cells (WT-EGFR) (surviving fraction) was found to be 0.57; the clonogenic survival, H1975 cells (T790M-EGFR) (surviving fraction) stood at 0.4; the clonogenic survival, H3255 cells (L858R-EGFR) (surviving fraction) turned out to be 0.71; the clonogenic survival, HeLa cells (WT-EGFR) (surviving fraction) is 0.72. Besides, in assay [1], the clonogenic survival, Het1A normal epithelial cells (WT-EGFR) (surviving fraction) came out at 1.02; the clonogenic survival, MRC5 normal fibroblasts (WT-EGFR) (surviving fraction) was 1.01; the clonogenic survival, UMSCC1 cells (WT-EGFR) (surviving fraction) was found to be 0.76; the clonogenic survival, UMSCC10B cells (WT-EGFR) (surviving fraction) is 0.63. Further, in assay [1], the clonogenic survival, UMSCC74B cells (WT-EGFR) (surviving fraction) was 0.74. Moreover, the clonogenic survival, CHO cells (EGFR negative) (surviving fraction) in assay [2] is 0.98. This molecule also yielded a fold increase in HSP90 protein binding in assay [3] of 5 to 10 fold.
